Data as given in patent publication US20260209316A1 (US Dept. of Health and Human Services, published 2026).
Substitutions are numbered along the chain they refer to.

T1: SUDV GP on pseudotyped lentiviral vector (Sudan virus (SUDV), UniProt Q7T9D9 33-676)
T1 sequence: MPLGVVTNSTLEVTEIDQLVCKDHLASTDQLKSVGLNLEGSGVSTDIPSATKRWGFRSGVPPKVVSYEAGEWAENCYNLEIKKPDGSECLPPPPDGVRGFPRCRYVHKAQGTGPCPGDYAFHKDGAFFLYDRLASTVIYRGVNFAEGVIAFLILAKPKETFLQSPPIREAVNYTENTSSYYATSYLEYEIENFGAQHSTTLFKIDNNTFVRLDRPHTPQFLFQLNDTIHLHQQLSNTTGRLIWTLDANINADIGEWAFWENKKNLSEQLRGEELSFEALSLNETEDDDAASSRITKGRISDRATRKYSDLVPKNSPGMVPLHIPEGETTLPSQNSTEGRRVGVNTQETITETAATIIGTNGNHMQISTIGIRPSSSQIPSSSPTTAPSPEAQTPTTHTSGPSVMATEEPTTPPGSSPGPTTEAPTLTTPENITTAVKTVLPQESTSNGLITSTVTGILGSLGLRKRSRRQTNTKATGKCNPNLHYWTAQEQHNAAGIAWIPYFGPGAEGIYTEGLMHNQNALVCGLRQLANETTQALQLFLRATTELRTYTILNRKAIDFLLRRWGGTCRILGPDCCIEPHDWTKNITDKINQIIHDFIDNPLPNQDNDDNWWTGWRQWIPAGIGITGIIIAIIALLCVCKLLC

T2: full-length Sudan GP (GPFL) (Sudan virus (SUDV), UniProt Q7T9D9 33-650)
T2 construct: also called Sudan GPFL; GP(S)FL
T2 sequence: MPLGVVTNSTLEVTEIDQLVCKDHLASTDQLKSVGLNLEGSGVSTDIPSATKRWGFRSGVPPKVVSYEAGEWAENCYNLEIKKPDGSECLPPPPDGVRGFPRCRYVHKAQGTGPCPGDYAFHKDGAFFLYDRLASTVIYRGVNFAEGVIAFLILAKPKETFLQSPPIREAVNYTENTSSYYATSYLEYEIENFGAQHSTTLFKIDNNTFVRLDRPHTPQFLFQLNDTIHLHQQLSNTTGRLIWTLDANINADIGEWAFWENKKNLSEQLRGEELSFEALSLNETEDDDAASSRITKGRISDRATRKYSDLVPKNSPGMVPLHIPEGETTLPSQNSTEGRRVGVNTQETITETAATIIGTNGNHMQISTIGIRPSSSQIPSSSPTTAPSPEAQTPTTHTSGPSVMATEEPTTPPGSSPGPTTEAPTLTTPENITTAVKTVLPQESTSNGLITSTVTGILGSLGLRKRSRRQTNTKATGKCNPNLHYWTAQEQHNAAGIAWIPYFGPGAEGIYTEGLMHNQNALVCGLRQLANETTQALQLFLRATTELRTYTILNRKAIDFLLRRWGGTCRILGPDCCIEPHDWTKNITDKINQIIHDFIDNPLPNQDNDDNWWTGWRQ

B1: antibody 203S (antibody, V domains shown)
VH: QVQLVQSGAEVKKPGSSVKVSCKASGGTFSSYAISWVRQAPGQGLEWLGRILPALGLANYAQKYQDRVKITADKSTSTAYMELSRLGSEDTAVYYCARDRWVGAARRGQYFDYWGQGTQVTVSS
VL: DIQMTQSPATLSASVGDRVTITCRASQSIGTWLAWYQQKPGKAPKLLIYDASSLESGVPPRFSGSGSETEFTLTISSLQPDDFATYYCHQYKSYSYTFGQGTKLEIK
B2: Fab generated from 285S (Fab, V domains shown)
VH: QVQLVQSGAEVKKPGSSVKVSCKASGGTFSTYAITWVRQAPGQGLEWMGRIIPILRVANYAQKFQGRVTITADSSTSTAYMELSSLRSEDTAVYYCANLLAYCGGDCRSDYWGQGTLVTVSS
VL: EIVLTQSPGTLSLSPGERATLSCRASQSVKNSYLAWYHQKPGQAPRLLIYGASSRATGIPDRFSGSGSGTDFTLTISRLEPEDFAVYYCQQYGSSLWTFGQGTKVDVK
B3: Fab generated from 365S (Fab, V domains shown)
VH: EVQLVESGGGLVQPGGSLRLSCAASGLTFSAYEMNWVRQAPGKGLEWVSHITTSGSAIYYADSVKGRFTISRDNAKNSLHLQMNRLRADDTAVYFCARDSTIVQCSGTSCHVSTYSYMDVWGKGTTVTVSS
VL: EIVLTQSPATLSLSPGERATLSCRASQSVTTYLAWYQHKPGQAPRLLIYDASKRATGIPARFSGSGSGTDFTLTISSLEPEDFAVYHCQQRSSWPPITFGQGTRLEIK
notes: also called 365S Fab
B4: Fab generated from 382S (Fab, V domains shown)
VH: QVQLVQSGAEVKKPGSSVKVSCKASGGTFSNYGISWVRQAPGQGLEWMGRNIPIIGIANYAQKFQDRVTITADKSTSTVFMELRSLRYEDTAVYYCARDPLAARRGNWFDPWGQGTLVTVSS
VL: B1 VL with A9S, I29V, G30S, T31S, S53T, E55Q, P60S, E68G, H89Q, K92N
notes: also called 382S Fab
B5: Fab generated from 578S (Fab, V domains shown)
VH: EVQLVESGGGVVQPGRSLRLSCAASGFTFSSYELHWVRQAPGKGLEWVAVISYDGSSKYYADSLKGRFTISRDNSKNTLSLQMNSLRAEDTAMYYCVRQSEAYCSDGRCDWRRALDIWGQGTMVTVSP
VL: DIQMTQSPSSLSASVGDRVTITCQASQDIKNYLNWYQQKPGKAPKLLIYDVSKLETGVPSRFSGSGSGTDFSFTISSLQPEDIATYYCQQYDNLPSYTFGQGTKLEIK
notes: also called 578S Fab
B6: Fab generated from 354S (Fab, V domains shown)
VH: QVQLVQSGAEVKKPGASVKVSCKASGYSFASYYIHWVRQAPGQGLEWMGIINPSGGTTSYAQKFQGRVTMTRDTSTSTVYMELSSLGSEDTAVYYCARIVDRVTIYLNGVDNYWGQGTLVTVSS
VL: EIVMTQSPATLSVSPGERVTLSCRASQSVSSNLAWFQQTPGQAPRLLIYGASTRASGVPARFSGSGSGTEFTLTISSLQSEDFAVYYCLQYNNWPPGWKYGFGQGTKLEIK
notes: also called 354S Fab
B7: Fab generated from 541S (Fab, V domains shown)
VH: QVQLVQSGAEVKKPGASVKVSCKASGYTFTNYAITWVRQAPGQGLEWMGWISAFNGQINYAQKFQGRVAMTTDTSTSTAYMELRSLRSDDTAVYYCARAPPMWFSGAKFDYWGQGTLVTVSS
VL: QSVLTQPPSVSGTPGQRVTISCSGSSSNIGSNTVNWYQQLPGTAPKLLIYSNDQRPSGVPDRFSGSKSGTSASLAISGLRSEDEADYYCAAWDETLRRVFGGGTRLTVL
notes: also called 541S Fab
B8: Fab generated from 241S (Fab, V domains shown)
VH: QVQLVQSGSELKKPGASVKVSCKASGYTFTSYTVNWVRQAPGQGLEWMGWINTNTGNPTYAQGFTGRFVFSSDTSVSTAYLQISDLKAEDTAMYYCARHVAYDLWSGHTVTFDHWGQGTLVTVSS
VL: QSALTQPPSASGSPGQSVTISCTGTSSDVGAYNYVSWYQQHPGKAPKLIIYEVTKRPSGVPDRFSGSKSGNTASLTVSGLQAEDEADYYCSSKAGGKTYVFGTGTKVTVL
B9: Fab generated from 503S (Fab, V domains shown)
VH: QVQLVQSGAEVKKPGASVRVSCKASGYTFTSYYMHWVRQAPGQGLEWMGQINPSGGTTRYERKFQGRITVTRDTSTSTVYLELSSLRSEDTASYFCACLRDKVTYYDLWSGVDSVWGQGTLVTVSS
VL: DIQMTQSPSSLSASVGDRVTITCRASQDISTWLAWYQQKPEKAPKSLIYAASTLETGVPSRFSGSGSGTDFTLTISSLQPEDFATYYCEQYNGFPRTFGQGTKLDIK
notes: also called 503S Fab
B10: Fab generated from 573S (Fab, V domains shown)
VH: EVQLVESGGGLVKPGGSLRLSCAASGFTFSSYTMNWVRQAPGKGLEWVSCIRSSSSDKYYADSVKGRFTISRDNTKNSLYLQMNSLRADDTAVYYCARDLGGANNRYYFDYGMDVWGQGTTVTVSS
VL: EIVMTQSPATLSVSPGGRATLSCRASQSVYTNLAWYQQKPGQAPRLLIYDASTRATGIPARFSGSGSGTEFTLTISSLQCEDFAVYYCQHYNNWPLYTFGQGTKLEIK
notes: also called 573S Fab
B11: Fab generated from 523S (Fab, V domains shown)
VH: QVQLVQSGAELKKPGASVKVSCKASGYTFSDHYVHWVRQAPGQGLEWMGRINPNSGGTNYAQRFLGRVTMTRDASISTAYLDLSSLRSDDTAVYYCARSSSSWSGHYYYYMDVWGKGTTVTVSS
VL: QSVLTQPPSVSAAPGQRVTISCSGSTSNIASNFVSWYQQLPGTAPKLLIYDNHKRPSGIPDRFSGSKSGTSATLGITGLQTGDEADYYCGTWDSSLSAGVFGGGTKVTVL
notes: also called 523S Fab
B12: Fab generated from 233S (Fab, V domains shown)
VH: EVQLVESGGGLGQPGGSLRLSCAASGFKFKIFGMNWVRQAPGKGLEWVSYISSRSSIIYYADSVKGRFTISRDDATNSLFLQMNSLRDEDTAMYYCVRDYNLIDFVWGSLFDYWGQGILVTVSS
VL: AIRMTQSPSSLSASTGDSVTITCRASQNIASYLAWYQQIPGKAPKLLIYVASTLQSGVPSRFSGSGSGTDFTLTISSLQSEDFATYYCQQYYRYPPTFGQGTKVEIK
B13: Fab generated from 294S (Fab, V domains shown)
VH: QVQLQESGPGLVKPSQTLSLTCTVSGGSISSGGYHWSWIRQHPGKGLEWIGNIYYNGRTYYNPSLKSRVTISVDTSENEFSLKLSSVTAADTAVYYCARDRRRPRIGHDYGMDVWGQGTKVIVSS
VL: DIQMTQSPSSLSASVGDRVTISCRASQSISNFLNWYQQKPGQAPKLLIYTASNLQSGVPSRFSGSGSGTDFTLTISSLQPEDFATYYCQQIYNTGMYSFGQGTKLEIK
notes: also called 294S Fab

molecular target: T1, SUDV GP on pseudotyped lentiviral vector; assay: cell-based or functional assay

| Binder | IC50, microneutralization of GP-pseudotyped lentiviral vector on HEK293 cells [µg/mL] |
| --- | --- |
| B1 | 0.04 |

molecular target: T2, full-length Sudan GP (GPFL); assay: ELISA on coated GP

| Binder | EC50 [µg/mL] |
| --- | --- |
| B1 | 0.5 |

molecular target: T2, full-length Sudan GP (GPFL); assay: BLI, Fab, pH 5.3

| Binder | Kd [nM] | koff [s⁻¹] | kon [M⁻¹ s⁻¹] |
| --- | --- | --- | --- |
| B2 | 18.2 | 0.000305 | 16800 |
| B3 | 57.7 | 0.00362 | 62800 |
| B4 | 31.3 | 0.000452 | 14500 |
| B5 | 334 | 0.000695 | 2100 |

molecular target: T2, full-length Sudan GP (GPFL); assay: BLI, Fab, pH 7.4

| Binder | Kd [nM] | koff [s⁻¹] | kon [M⁻¹ s⁻¹] |
| --- | --- | --- | --- |
| B2 | 6.11 | 0.000258 | 42200 |
| B3 | 102 | 0.00171 | 16800 |
| B4 | 26 | 0.000422 | 16200 |
| B5 | 97.1 | 0.000404 | 4200 |

molecular target: T2, full-length Sudan GP (GPFL); assay: BLI, Fab, pH 7.4; remark: another data set of the same source

| Binder | Kd [nM] | koff [s⁻¹] | kon [M⁻¹ s⁻¹] |
| --- | --- | --- | --- |
| B6 | 8.89 | 0.00076 | 85600 |
| B7 | 39.5 | 0.000482 | 12200 |
| B8 | 3.47 | 0.000439 | 127000 |
| B9 | 19.5 | 0.00111 | 56800 |
| B10 | 24.1 | 0.000252 | 10500 |
| B11 | 1.61 | 0.000148 | 91900 |
| B12 | 7.53 | 0.000543 | 72100 |
| B13 | 4.3 | 0.00135 | 314000 |

molecular target: T2, full-length Sudan GP (GPFL); assay: BLI, Fab, pH 5.3; remark: another data set of the same source

| Binder | Kd [nM] | koff [s⁻¹] | kon [M⁻¹ s⁻¹] |
| --- | --- | --- | --- |
| B6 | 6.12 | 0.000445 | 72700 |
| B7 | 44.3 | 0.000322 | 7260 |
| B8 | 6.36 | 0.000433 | 68200 |
| B9 | 6.58 | 0.000373 | 56700 |
| B10 | 9.27 | 0.000105 | 11300 |
| B11 | 1.58 | 0.000103 | 65400 |
| B12 | 7.56 | 0.000358 | 47300 |
| B13 | 2.18 | 0.000377 | 173000 |
